According to US20030129638A1, “Reagents for antagonizing the protein-protein interaction between Raf-1 and apoptosis signal-regulating kinase and uses therefor” (priority 2001, published 2003):

B1: SEQ ID NO:7: amino acid residues 6 to 163 of the full-length human ASK1 sequence set forth in SEQ ID NO:1 (protein, UniProt Q99683 6-163, looked up, fragment)
chain: DEGITFSVPPFAPSGFCTIPEGGICRRGGAAAVGEGEEHQLPPPPPGSFWNVESAAAPGIGCPAATSSSSATRGRGSSVGGGSRRTTVAYVINEASQGQLVVAESEALQSLREACETVGATLETLHFGKLDFGETTVLDRFYNADIAVVEMSDAFRQP
B2: SEQ ID NO:3: amino acid residues 6 to 230 of full-length human ASK1 (SEQ ID NO:1), expressed as a (His)6/HA-tagged fusion peptide (protein, UniProt Q99683 6-230, looked up, fragment)
chain: DEGITFSVPPFAPSGFCTIPEGGICRRGGAAAVGEGEEHQLPPPPPGSFWNVESAAAPGIGCPAATSSSSATRGRGSSVGGGSRRTTVAYVINEASQGQLVVAESEALQSLREACETVGATLETLHFGKLDFGETTVLDRFYNADIAVVEMSDAFRQPSLFYHLGVRESFSMANNIILYCDTNSDSLQSLKEIICQKNTMCTGNYTFVPYMITPHNKVYCCDSSF
modifications: His6/HA tag
B3: SEQ ID NO:8: amino acid residues 69 to 230 of the full-length human ASK1 sequence set forth in SEQ ID NO:1 (protein, UniProt Q99683 69-230, looked up, fragment)
chain: AATSSSSATRGRGSSVGGGSRRTTVAYVINEASQGQLVVAESEALQSLREACETVGATLETLHFGKLDFGETTVLDRFYNADIAVVEMSDAFRQPSLFYHLGVRESFSMANNIILYCDTNSDSLQSLKEIICQKNTMCTGNYTFVPYMITPHNKVYCCDSSF

Experiments:
ERK1/2 activation = assay: Western blot of ERK1/2 activation in HeLa cell lysates; type: cell-based, human; conditions: HeLa cells, 60 μM
Description: Cell lysates from HeLa cells treated with 60 μM PD98059 or vehicle were probed by Western blotting with either an ERK1/2 activation-specific antibody (Upper; Cell Signaling Technology) or pan-ERK1/2 antibody (Lower; Cell Signaling Technology).
To test the hypothesis that Raf-1 regulates ASK1-induced apoptosis through the MEK-ERK pathway, we used two widely used MEK antagonists, PD98059 and U0126 (Dudley et al. (1995) Proc. Natl. Acad. Sci. USA 92:7686-7689; Favata et al. (1998) J. Biol. Chem. 273:18623-18632). […] To confirm the observations with PD98059 and U0126, we used a dominant negative mutant of MEK1, MEK1dn, to interfere with MEK signaling (Sugimoto et al. (1998) EMBO J. 17:1717-1727).

[1] = tested on: ASK1-induced apoptosis in HeLa cells; assay: β-gal cell morphology-based apoptosis assay: effect of MEK inhibition on Raf-1 inhibition of ASK1-induced cell death; parameters: species or system human; conditions: PD98059 60 μM for 18 h
Description: FIG. 2B is a graphic summary of the effect of MEK inhibition by PD98059 on Raf-1 function. Six hours after transfection as in A, HeLa cells were treated with PD98059 (60 μM) or vehicle (DMSO) for 18 h before being stained with 5-bromo-4-chloro-3-indolyl-D-galactopyranoside and scored for apoptosis in a blind fashion. Specific apoptosis is derived by subtracting the level of apoptosis seen in pcDNA3-transfected cells. At least 500 cells were scored for each sample. Results shown are representative of three independent experiments.
For the nuclear morphology assays (Zhang et al. (1999) Proc. Natl. Acad. Sci. USA 96:8511-8515), 2×10^5 HeLa cells were cultured in 35-mm dishes containing glass coverslips. […] Twenty-four hours later, cells on the glass coverslips were washed, fixed (0.5% glutaraldehyde/2% formaldehyde in PBS), stained with 4′,6-diamidino-2-phenylindole (DAPI) in Vectashield mounting medium (Vector Laboratories), and visualized by using a fluorescence microscope as described (Zhang et al. (1999) Proc. Natl. Acad. Sci. USA, 96:8511-8515). Transfected cells with fragmented nuclei were scored for apoptosis in a blind fashion. […] Twenty-four hours after transfection, cells were fixed, stained with 5-bromo-4-chloro-3-indolyl-β-D-galactopyranoside, and scored for apoptosis as described (Chang et al. (1998) Science 281:1860-1863). […]

[2] = target: T1, protein-protein interaction between Raf-1 and ASK1 (Homo sapiens, UniProt P04049); assay: Coimmunoprecipitation with anti-Raf-1 antibody and Western blot for ASK1 in transfectants expressing ASK1 N-terminal domain fusion peptides; type: cell-based; conditions: fusion peptide expressed in cells, FIG. 7
T1 construct: expressed in transfected cells; host or cells: COS7
Description: FIG. 7 is a Western blot analysis of Raf-1 immunoprecipitates obtained from transfectants comprising N-terminal domain truncation peptides.
(§1) Forty-eight hours after transfection, 4×10^5 COS7 cells were lysed in 300 μl of lysis buffer (0.2% Nonidet P-40/10 mM Hepes, pH 7.4/150 mM NaCl/5 mM NaF/2 mM Na3VO4/5 mM Na4P2O7/10 μg/ml aprotonin/10 μg/ml leupeptin/1 mM phenylmethylsulfonyl fluoride). Cell extracts were clarified by centrifugation and used for immunoprecipitation with various antibodies and protein G-Sepharose (Amersham Pharmacia). Immunocomplexes were washed four times with lysis buffer containing 1% Nonidet P-40 or RIPA buffer (1% Nonidet P-40/0.5% sodium deoxycholate/0.1% SDS/137 mM NaCl/20 mM Tris.HCl, pH 7.5) and resolved on SDS/PAGE (12.5%) for Western blotting. The enzyme-linked immunoblotting procedures were performed essentially as described (Zhang et al. (1999) Proc. Natl. Acad. Sci. USA 96:8511-8515). Corresponding secondary antibodies were used against each primary antibody: horseradish peroxidase-conjugated goat anti-mouse IgG for monoclonal antibodies and horseradish peroxidase-conjugated goat anti-rabbit IgG for polyclonal antibodies (Santa Cruz Biotechnology). Cross-reacting materials were visualized by using the ECL detection reagents (Amersham Pharmacia).
Coimmunoprecipitation experiments were performed using anti-Raf-1 antibody (RI9120, Transduction Laboratories) as described. […] Raf-1 immunoprecipitates were analyzed with antibodies specific for ASK1 and Raf-1 (upper panel). HA-ASK1 protein present in Raf-1 immunoprecipitates was probed with anti-ASK1 antibody H-300 (1:2000, Santa Cruz;). […] The effect of this disruption is manifested as the absence of ASK1 protein in the Raf-1 immunoprecipitates.

[3] = tested on: Raf-1 prosurvival effects on ASK1-induced cell death in COS7 cells; assay: DNA content-based flow cytometric apoptosis assay (sub-G0 fraction) in transfected COS7 cells; type: cell-based; conditions: COS7 cells cotransfected with HA-ASK1, Flag-Raf-1 and ASK1 truncation construct (0.3 μg), FIG. 8
Description: FIG. 8 provides a graphic representation of data obtained from a DNA content-based flow cytometric apoptosis assay. The fraction of transfected cells with sub-G0 DNA content in each sample was quantified. The data presented are representative of three independent experiments.
The DNA content-based apoptosis assay was performed with a fluorescence-activated cell sorter as described (Spector et al. (1997) Cells: A Laboratory Manual (Cold Spring Harbor Lab. Press, Plainview, N.Y.). Briefly, COS7 cells (2×10^5) were cotransfected with pEGFP-F (0.4 μg; CLONTECH) encoding a farnesylated eGFP and test plasmids (1.6 μg total). Twenty-four hours after transfection, total cells were trypsinized, resuspended in PBS, fixed in ice-cold ethanol followed by overnight incubation, treated with RNase A (Sigma-Aldrich), and stained with propidium iodide (Sigma-Aldrich). Samples were analyzed with a FACSort flow cytometer (Becton Dickinson). The DNA content of transfected cells was determined by using WINMDI 2.8 software (Trotter, Scripps Research Institute, La Jolla, Calif.).
A DNA content-based flow cytometric apoptosis assay was performed to evaluate the effects of the ASK1 N-terminal domain truncation peptides on the prosurvival effects of Raf-1. COS7 cells were transfected with indicated plasmids encoding HA-ASK1 (1.0 μg), Flag-Raf-1 (0.3 μg) or ASK1 truncation constructs (0.3 μg) as indicated along with an EGFP-F expression vector (0.4 μg) as described.

Raf-1 = Raf-1 (Homo sapiens, UniProt P04049); assay: Association of ASK1 N-terminal domain truncation peptides with Raf-1; type: binding; conditions: N-terminal domain fusion peptide
Description: FIG. 6A provides a schematic representation of the ASK1 N-terminal domain truncation proteins used herein. Association of ASK1 mutants with Raf-1 is summarized. Positive interaction is represented by (+).
as §1
FIG. 6A provides a schematic representation of the ASK1 N-terminal domain truncation peptides used herein. Various truncation mutants of the ASK1 N-terminal domain were generated as shown and expressed as fusion proteins with a (His)6-tag at the N-terminus and an HA-tag at the C-terminus, except ASK-N69-163 which has the N-terminal (His)6-tag but a GST-tag at the C-terminus. Association of ASK1 mutants with Raf-1 is summarized. Positive interaction is represented by (+).

Row | Molecule | Activation of ERK1/2 (ERK1/2 activation) | Effect on the ability of Raf-1 to inhibit ASK1-induced cell death [1] | Disruption of the Raf-1/ASK1 interaction (ASK1 in Raf-1 immunoprecipitates) [2] | Effect on Raf-1 prosurvival effects on ASK1-induced cell death [3] | Binding to Raf-1 (Raf-1)
1 | COc1cccc(-c2cc(=O)c3ccccc3o2)c1N [PD98059] | diminished the activation of ERK1/2 | did not decrease the ability of Raf-1 to inhibit ASK1-induced cell death | – | – | –
2 | B1 | – | – | disrupts the protein-protein interaction between Raf-1 and ASK1 | eliminates Raf-1 prosurvival effects on ASK1-induced cell death | ability to bind Raf-1
3 | B2 | – | – | disrupts the protein-protein interaction between Raf-1 and ASK1 | eliminates Raf-1 prosurvival effects on ASK1-induced cell death | ability to bind Raf-1
4 | B3 | – | – | disrupts the protein-protein interaction between Raf-1 and ASK1 | eliminates Raf-1 prosurvival effects on ASK1-induced cell death | ability to bind Raf-1
